Measurements reported in US20190359986A1.

Target: TNF-α
Assay: cell-based or functional assay

Substance | EC50, L929 cytotoxicity assay (protection of L929 cells from TNF-α) [ng/mL] | further results
mouse TNFR2 Δ7 with His-tag, from clone 1144-4 transfected HeLa cells (receptor) |  | EC50, L929 cytotoxicity assay; extracellular media from 1144-4 transfected HeLa cells: 2.4 ng/mL
Etanercept (Fc fusion) | 1.1 | 
Recombinant soluble TNFR2 (rsTNFR2) (from UniProt P25119 23-258) (receptor) | 698 | 
mouse TNFR2 Δ7 without His-tag, from clone 1145-3 transfected HeLa cells (from UniProt P25119 23-474) (receptor) |  | EC50, L929 cytotoxicity assay; extracellular media from 1145-3 transfected HeLa cells: 2.4 ng/mL
